Sequences and labels used below:
B1: CD3.78 (bispecific antibody, V domains shown)
VH: EVQLLESGGGIVQPGGSLKLSCAASGFTFNTYAMNWVRQAPGKGLEWVARIRSKYNDYATYYADSVKDRFTISRDDSKNTVYLQMNNLKTEDTAVYYCVRHENFGNSYVSWFAHWGQGTLVTVSS
VL: ELVVTQEPSLTVSPGGTVTLTCRSSNGAVTSSNYANWVQQKPGQAPRGLIGGTNKRAPGTPARFSGSLLGGKAALTLSGVQPEDEAVYYCALWYPNLWVFGGGTKLTVL
notes: paTCE with PSMA.5; also called AC3407; N54D
B2: CD3.81 (bispecific antibody, V domains shown)
VH: EVQLLESGGGIVQPGGSLKLSCAASGFTFNTYAMNWVRQAPGKGLEWVARIRSKYNNFATYYADSVKDRFTISRDDSKNTVYLQMNNLKTEDTAVYYCVRHENFGNSYVSWFAHWGQGTLVTVSS
VL: ELVVTQEPSLTVSPGGTVTLTCRSSNGAVTSSNYANWVQQKPGQAPRGLIGGTNKRAPGTPARFSGSLLGGKAALTLSGVQPEDEAVYYCALWYPNLWVFGGGTKLTVL
notes: paTCE with PSMA.5; also called AC3410; Y55F
B3: CD3.91 (bispecific antibody, V domains shown)
VH: EVQLLESGGGIVQPGGSLKLSCAASGFTFNTYAMNWVRQAPGKGLEWVARIRSKYNNYATYGADSVKDRFTISRDDSKNTVYLQMNNLKTEDTAVYYCVRHENFGNSYVSWFAHWGQGTLVTVSS
VL: ELVVTQEPSLTVSPGGTVTLTCRSSNGAVTSSNYANWVQQKPGQAPRGLIGGTNKRAPGTPARFSGSLLGGKAALTLSGVQPEDEAVYYCALWYPNLWVFGGGTKLTVL
notes: paTCE with PSMA.5; also called AC3420; Y59G
B4: CD3.95 (bispecific antibody, V domains shown)
VH: EVQLLESGGGIVQPGGSLKLSCAASGFTFNTYAMNWVRQAPGKGLEWVARIRSKYNNYATYYADSVKGRFTISRDDSKNTVYLQMNNLKTEDTAVYYCVRHENFGNSYVSWFAHWGQGTLVTVSS
VL: ELVVTQEPSLTVSPGGTVTLTCRSSNGAVTSSNYANWVQQKPGQAPRGLIGGTNKRAPGTPARFSGSLLGGKAALTLSGVQPEDEAVYYCALWYPNLWVFGGGTKLTVL
notes: paTCE with PSMA.5; also called AC3424; D65G
B5: CD3.87 (bispecific antibody, V domains shown)
VH: EVQLLESGGGIVQPGGSLKLSCAASGFTFNTYAMNWVRQAPGKGLEWVARIRSKYNNYATTYADSVKDRFTISRDDSKNTVYLQMNNLKTEDTAVYYCVRHENFGNSYVSWFAHWGQGTLVTVSS
VL: ELVVTQEPSLTVSPGGTVTLTCRSSNGAVTSSNYANWVQQKPGQAPRGLIGGTNKRAPGTPARFSGSLLGGKAALTLSGVQPEDEAVYYCALWYPNLWVFGGGTKLTVL
notes: paTCE with PSMA.5; also called AC3416; Y58T
B6: CD3.82 (bispecific antibody, V domains shown)
VH: EVQLLESGGGIVQPGGSLKLSCAASGFTFNTYAMNWVRQAPGKGLEWVARIRSKYNNWATYYADSVKDRFTISRDDSKNTVYLQMNNLKTEDTAVYYCVRHENFGNSYVSWFAHWGQGTLVTVSS
VL: ELVVTQEPSLTVSPGGTVTLTCRSSNGAVTSSNYANWVQQKPGQAPRGLIGGTNKRAPGTPARFSGSLLGGKAALTLSGVQPEDEAVYYCALWYPNLWVFGGGTKLTVL
notes: paTCE with PSMA.5; also called AC3411; Y55W
B7: CD3.84 (bispecific antibody, V domains shown)
VH: EVQLLESGGGIVQPGGSLKLSCAASGFTFNTYAMNWVRQAPGKGLEWVARIRSKYNNYTTYYADSVKDRFTISRDDSKNTVYLQMNNLKTEDTAVYYCVRHENFGNSYVSWFAHWGQGTLVTVSS
VL: ELVVTQEPSLTVSPGGTVTLTCRSSNGAVTSSNYANWVQQKPGQAPRGLIGGTNKRAPGTPARFSGSLLGGKAALTLSGVQPEDEAVYYCALWYPNLWVFGGGTKLTVL
notes: paTCE with PSMA.5; also called AC3413; A56T
B8: CD3.90 (bispecific antibody, V domains shown)
VH: EVQLLESGGGIVQPGGSLKLSCAASGFTFNTYAMNWVRQAPGKGLEWVARIRSKYNNYATYQADSVKDRFTISRDDSKNTVYLQMNNLKTEDTAVYYCVRHENFGNSYVSWFAHWGQGTLVTVSS
VL: ELVVTQEPSLTVSPGGTVTLTCRSSNGAVTSSNYANWVQQKPGQAPRGLIGGTNKRAPGTPARFSGSLLGGKAALTLSGVQPEDEAVYYCALWYPNLWVFGGGTKLTVL
notes: paTCE with PSMA.5; also called AC3419; Y59Q
B9: CD3.94 (bispecific antibody, V domains shown)
VH: EVQLLESGGGIVQPGGSLKLSCAASGFTFNTYAMNWVRQAPGKGLEWVARIRSKYNNYATYYPDSVKDRFTISRDDSKNTVYLQMNNLKTEDTAVYYCVRHENFGNSYVSWFAHWGQGTLVTVSS
VL: ELVVTQEPSLTVSPGGTVTLTCRSSNGAVTSSNYANWVQQKPGQAPRGLIGGTNKRAPGTPARFSGSLLGGKAALTLSGVQPEDEAVYYCALWYPNLWVFGGGTKLTVL
notes: paTCE with PSMA.5; also called AC3423; A60P
B10: CD3.89 (bispecific antibody, V domains shown)
VH: EVQLLESGGGIVQPGGSLKLSCAASGFTFNTYAMNWVRQAPGKGLEWVARIRSKYNNYATYEADSVKDRFTISRDDSKNTVYLQMNNLKTEDTAVYYCVRHENFGNSYVSWFAHWGQGTLVTVSS
VL: ELVVTQEPSLTVSPGGTVTLTCRSSNGAVTSSNYANWVQQKPGQAPRGLIGGTNKRAPGTPARFSGSLLGGKAALTLSGVQPEDEAVYYCALWYPNLWVFGGGTKLTVL
notes: paTCE with PSMA.5; also called AC3418; Y59E
B11: CD3.96 (bispecific antibody, V domains shown)
VH: EVQLLESGGGIVQPGGSLKLSCAASGFTFNTYAMNWVRQAPGKGLEWVARIRSKYNNYATYYADSVKDRFTISRDDSKNTVDLQMNNLKTEDTAVYYCVRHENFGNSYVSWFAHWGQGTLVTVSS
VL: ELVVTQEPSLTVSPGGTVTLTCRSSNGAVTSSNYANWVQQKPGQAPRGLIGGTNKRAPGTPARFSGSLLGGKAALTLSGVQPEDEAVYYCALWYPNLWVFGGGTKLTVL
notes: paTCE with PSMA.5; also called AC3425; Y79D
B12: CD3.83 (bispecific antibody, V domains shown)
VH: EVQLLESGGGIVQPGGSLKLSCAASGFTFNTYAMNWVRQAPGKGLEWVARIRSKYNNYGTYYADSVKDRFTISRDDSKNTVYLQMNNLKTEDTAVYYCVRHENFGNSYVSWFAHWGQGTLVTVSS
VL: ELVVTQEPSLTVSPGGTVTLTCRSSNGAVTSSNYANWVQQKPGQAPRGLIGGTNKRAPGTPARFSGSLLGGKAALTLSGVQPEDEAVYYCALWYPNLWVFGGGTKLTVL
notes: paTCE with PSMA.5; also called AC3412; A56G
B13: CD3.93 (bispecific antibody, V domains shown)
VH: EVQLLESGGGIVQPGGSLKLSCAASGFTFNTYAMNWVRQAPGKGLEWVARIRSKYNNYATYYKDSVKDRFTISRDDSKNTVYLQMNNLKTEDTAVYYCVRHENFGNSYVSWFAHWGQGTLVTVSS
VL: ELVVTQEPSLTVSPGGTVTLTCRSSNGAVTSSNYANWVQQKPGQAPRGLIGGTNKRAPGTPARFSGSLLGGKAALTLSGVQPEDEAVYYCALWYPNLWVFGGGTKLTVL
notes: paTCE with PSMA.5; also called AC3422; A60K
B14: CD3.85 (bispecific antibody, V domains shown)
VH: EVQLLESGGGIVQPGGSLKLSCAASGFTFNTYAMNWVRQAPGKGLEWVARIRSKYNNYATDYADSVKDRFTISRDDSKNTVYLQMNNLKTEDTAVYYCVRHENFGNSYVSWFAHWGQGTLVTVSS
VL: ELVVTQEPSLTVSPGGTVTLTCRSSNGAVTSSNYANWVQQKPGQAPRGLIGGTNKRAPGTPARFSGSLLGGKAALTLSGVQPEDEAVYYCALWYPNLWVFGGGTKLTVL
notes: paTCE with PSMA.5; also called AC3414; Y58D
B15: CD3.97 (bispecific antibody, V domains shown)
VH: EVQLLESGGGIVQPGGSLKLSCAASGFTFNTYAMNWVRQAPGKGLEWVARIRSKYNNYATYYADSVKDRFTISRDDSKNTVGLQMNNLKTEDTAVYYCVRHENFGNSYVSWFAHWGQGTLVTVSS
VL: ELVVTQEPSLTVSPGGTVTLTCRSSNGAVTSSNYANWVQQKPGQAPRGLIGGTNKRAPGTPARFSGSLLGGKAALTLSGVQPEDEAVYYCALWYPNLWVFGGGTKLTVL
notes: paTCE with PSMA.5; also called AC3426; Y79G
B16: CD3.88 (bispecific antibody, V domains shown)
VH: EVQLLESGGGIVQPGGSLKLSCAASGFTFNTYAMNWVRQAPGKGLEWVARIRSKYNNYATYDADSVKDRFTISRDDSKNTVYLQMNNLKTEDTAVYYCVRHENFGNSYVSWFAHWGQGTLVTVSS
VL: ELVVTQEPSLTVSPGGTVTLTCRSSNGAVTSSNYANWVQQKPGQAPRGLIGGTNKRAPGTPARFSGSLLGGKAALTLSGVQPEDEAVYYCALWYPNLWVFGGGTKLTVL
notes: paTCE with PSMA.5; also called AC3417; Y59D
B17: CD3.80 (bispecific antibody, V domains shown)
VH: EVQLLESGGGIVQPGGSLKLSCAASGFTFNTYAMNWVRQAPGKGLEWVARIRSKYNNGATYYADSVKDRFTISRDDSKNTVYLQMNNLKTEDTAVYYCVRHENFGNSYVSWFAHWGQGTLVTVSS
VL: ELVVTQEPSLTVSPGGTVTLTCRSSNGAVTSSNYANWVQQKPGQAPRGLIGGTNKRAPGTPARFSGSLLGGKAALTLSGVQPEDEAVYYCALWYPNLWVFGGGTKLTVL
notes: paTCE with PSMA.5; also called AC3409; Y55G
B18: CD3.79 (bispecific antibody, V domains shown)
VH: EVQLLESGGGIVQPGGSLKLSCAASGFTFNTYAMNWVRQAPGKGLEWVARIRSKYNEYATYYADSVKDRFTISRDDSKNTVYLQMNNLKTEDTAVYYCVRHENFGNSYVSWFAHWGQGTLVTVSS
VL: ELVVTQEPSLTVSPGGTVTLTCRSSNGAVTSSNYANWVQQKPGQAPRGLIGGTNKRAPGTPARFSGSLLGGKAALTLSGVQPEDEAVYYCALWYPNLWVFGGGTKLTVL
notes: paTCE with PSMA.5; also called AC3408; N54E
B19: CD3.86 (bispecific antibody, V domains shown)
VH: EVQLLESGGGIVQPGGSLKLSCAASGFTFNTYAMNWVRQAPGKGLEWVARIRSKYNNYATEYADSVKDRFTISRDDSKNTVYLQMNNLKTEDTAVYYCVRHENFGNSYVSWFAHWGQGTLVTVSS
VL: ELVVTQEPSLTVSPGGTVTLTCRSSNGAVTSSNYANWVQQKPGQAPRGLIGGTNKRAPGTPARFSGSLLGGKAALTLSGVQPEDEAVYYCALWYPNLWVFGGGTKLTVL
notes: paTCE with PSMA.5; also called AC3415; Y58E
B20: CD3.92 (bispecific antibody, V domains shown)
VH: EVQLLESGGGIVQPGGSLKLSCAASGFTFNTYAMNWVRQAPGKGLEWVARIRSKYNNYATYWADSVKDRFTISRDDSKNTVYLQMNNLKTEDTAVYYCVRHENFGNSYVSWFAHWGQGTLVTVSS
VL: ELVVTQEPSLTVSPGGTVTLTCRSSNGAVTSSNYANWVQQKPGQAPRGLIGGTNKRAPGTPARFSGSLLGGKAALTLSGVQPEDEAVYYCALWYPNLWVFGGGTKLTVL
notes: paTCE with PSMA.5; also called AC3421; Y59W

In this test the target is T1, human CD3 epsilon (human, UniProt P07766 23-126, limits assumed).
T1 construct: also called huCD3e
T1 sequence (P07766 23-126 limits assumed): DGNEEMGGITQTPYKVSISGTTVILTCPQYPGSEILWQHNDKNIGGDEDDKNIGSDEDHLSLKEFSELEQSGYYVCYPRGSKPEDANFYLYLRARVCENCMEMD
Description: Octet, crude lysate. From the text: To achieve this, Pool 1 was created, which included 74 paTCE molecules, each containing PSMA.5 and one of the 74 CD3.23 mutation variants. Single mutations were chosen based on analyses including CD3.23 PTE score analysis (using internal PTE algorithm v12) and structural analysis. Structural considerations included: possible contact disruption, anticipated steric clashes, side chain charge maintenance and possible pockets filling. Stability and affinity of the individually expressed molecules in the form of crude lysate was evaluated by Octet (ForteBio).
The molecule B1 displayed a Kd of 7.4 nM.
The same measure for B2: 6.1 nM; for B3: 8.3 nM.
The molecule B4 had a Kd of 5.4 nM.
The same measure for B5: 17.9 nM; for B6: 7.8 nM; for B7: 10.7 nM.
B8: the affinity, expressed as Kd, was 7.2 nM.
In turn, B9 gave a Kd of 8.2 nM.
In turn, B10 had an equilibrium dissociation constant (Kd) of 9.7 nM.
The same measure for B11: 9.8 nM; for B12: 8.2 nM.
The same measure for B13: 8 nM; for B14: 939 nM; for B15: 121 nM.
In turn, B16 registered a Kd of 63.2 nM.
The molecule B17 gave a Kd of 11.3 nM.
Molecule B18 gave a Kd of 8.3 nM.
In turn, B19 showed a Kd of 183 nM.
B20: the Kd came to 37.2 nM.
